In patent US20240261333A1, “NOVEL TARGETS FOR ENHANCING ANTI-TUMOR IMMUNITY” (THE BROAD INSTITUTE, INC., priority 2021, published 2024):

Columns and labels:
Experiment in all cases: co-IP, IgG control, lysate of cells with N-FLAG B3GNT2; mass spectrometry
[1] = biological target: C1orf68 (human) (UniProt Q5T750)
[2] = biological target: CAT (human) (UniProt P04040)
[3] = biological target: CSE1L (human) (UniProt P55060)
[4] = biological target: DNAJC3 (human) (UniProt Q13217)
[5] = biological target: EIF5B (human) (UniProt O60841)
[6] = biological target: FAU (human) (UniProt P62861)
[7] = biological target: GGCT (human) (UniProt O75223)
[8] = biological target: HADHB (human) (UniProt P55084)
[9] = biological target: HNRNPK (human) (UniProt P61978)
[10] = biological target: HSPA8 (human) (UniProt P11142)
[11] = biological target: HUWE1 (human) (UniProt Q7Z6Z7)
[12] = biological target: KRT4 (human) (UniProt P19013)
[13] = biological target: KRT6B (human) (UniProt P04259)
[14] = biological target: T1, MOV10 (human) (UniProt Q9HCE1)
T1 sequence (looked up): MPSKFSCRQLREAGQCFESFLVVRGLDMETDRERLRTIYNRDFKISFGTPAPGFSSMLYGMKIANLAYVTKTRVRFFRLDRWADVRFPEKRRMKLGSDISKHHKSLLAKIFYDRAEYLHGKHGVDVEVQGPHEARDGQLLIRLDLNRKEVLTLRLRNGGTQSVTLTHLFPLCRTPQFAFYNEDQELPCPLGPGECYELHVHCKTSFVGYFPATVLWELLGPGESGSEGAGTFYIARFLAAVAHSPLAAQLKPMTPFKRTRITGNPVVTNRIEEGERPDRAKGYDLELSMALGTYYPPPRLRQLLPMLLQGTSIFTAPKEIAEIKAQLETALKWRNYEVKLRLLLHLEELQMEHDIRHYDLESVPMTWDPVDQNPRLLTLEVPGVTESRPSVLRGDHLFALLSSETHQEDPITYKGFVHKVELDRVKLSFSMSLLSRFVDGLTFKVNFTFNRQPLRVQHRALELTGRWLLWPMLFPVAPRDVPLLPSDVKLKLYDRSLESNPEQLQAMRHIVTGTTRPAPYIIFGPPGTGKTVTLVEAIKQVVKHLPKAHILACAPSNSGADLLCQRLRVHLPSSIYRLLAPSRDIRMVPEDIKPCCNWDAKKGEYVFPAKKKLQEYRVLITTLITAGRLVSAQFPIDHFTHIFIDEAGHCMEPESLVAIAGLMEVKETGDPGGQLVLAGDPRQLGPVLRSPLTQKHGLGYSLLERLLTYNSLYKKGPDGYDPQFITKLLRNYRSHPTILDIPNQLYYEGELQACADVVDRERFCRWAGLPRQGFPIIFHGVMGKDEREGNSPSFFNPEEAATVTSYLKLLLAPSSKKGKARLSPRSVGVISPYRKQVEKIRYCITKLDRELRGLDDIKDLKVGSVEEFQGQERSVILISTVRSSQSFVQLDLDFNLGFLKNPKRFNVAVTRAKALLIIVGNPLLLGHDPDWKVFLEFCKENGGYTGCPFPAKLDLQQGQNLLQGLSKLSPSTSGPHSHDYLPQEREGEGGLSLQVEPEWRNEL

[15] = biological target: RBM39 (human) (UniProt Q14498)
[16] = biological target: RPL10 (human) (UniProt P27635)
[17] = biological target: RPL18 (human) (UniProt Q07020)
[18] = biological target: SAMM50 (human) (UniProt Q9Y512)
[19] = biological target: T2, SERBP1 (human) (UniProt Q8NC51)
T2 sequence (looked up): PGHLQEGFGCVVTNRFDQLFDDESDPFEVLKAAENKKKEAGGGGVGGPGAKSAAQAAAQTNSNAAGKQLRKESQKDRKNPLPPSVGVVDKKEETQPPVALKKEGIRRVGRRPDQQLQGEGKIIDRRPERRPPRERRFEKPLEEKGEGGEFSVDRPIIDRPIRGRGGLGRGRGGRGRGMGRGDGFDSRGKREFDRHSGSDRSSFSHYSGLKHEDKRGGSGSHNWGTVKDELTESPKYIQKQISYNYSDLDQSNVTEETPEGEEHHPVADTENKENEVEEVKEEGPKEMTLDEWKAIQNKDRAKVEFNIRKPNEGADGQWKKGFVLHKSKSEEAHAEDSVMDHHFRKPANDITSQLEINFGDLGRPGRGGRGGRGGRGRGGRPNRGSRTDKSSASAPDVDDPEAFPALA

[20] = biological target: SPTAN1 (human) (UniProt Q13813)
[21] = biological target: UBAP2L (human) (UniProt Q14157)
UBAP2L (human), sequence (Q14157 whole entry): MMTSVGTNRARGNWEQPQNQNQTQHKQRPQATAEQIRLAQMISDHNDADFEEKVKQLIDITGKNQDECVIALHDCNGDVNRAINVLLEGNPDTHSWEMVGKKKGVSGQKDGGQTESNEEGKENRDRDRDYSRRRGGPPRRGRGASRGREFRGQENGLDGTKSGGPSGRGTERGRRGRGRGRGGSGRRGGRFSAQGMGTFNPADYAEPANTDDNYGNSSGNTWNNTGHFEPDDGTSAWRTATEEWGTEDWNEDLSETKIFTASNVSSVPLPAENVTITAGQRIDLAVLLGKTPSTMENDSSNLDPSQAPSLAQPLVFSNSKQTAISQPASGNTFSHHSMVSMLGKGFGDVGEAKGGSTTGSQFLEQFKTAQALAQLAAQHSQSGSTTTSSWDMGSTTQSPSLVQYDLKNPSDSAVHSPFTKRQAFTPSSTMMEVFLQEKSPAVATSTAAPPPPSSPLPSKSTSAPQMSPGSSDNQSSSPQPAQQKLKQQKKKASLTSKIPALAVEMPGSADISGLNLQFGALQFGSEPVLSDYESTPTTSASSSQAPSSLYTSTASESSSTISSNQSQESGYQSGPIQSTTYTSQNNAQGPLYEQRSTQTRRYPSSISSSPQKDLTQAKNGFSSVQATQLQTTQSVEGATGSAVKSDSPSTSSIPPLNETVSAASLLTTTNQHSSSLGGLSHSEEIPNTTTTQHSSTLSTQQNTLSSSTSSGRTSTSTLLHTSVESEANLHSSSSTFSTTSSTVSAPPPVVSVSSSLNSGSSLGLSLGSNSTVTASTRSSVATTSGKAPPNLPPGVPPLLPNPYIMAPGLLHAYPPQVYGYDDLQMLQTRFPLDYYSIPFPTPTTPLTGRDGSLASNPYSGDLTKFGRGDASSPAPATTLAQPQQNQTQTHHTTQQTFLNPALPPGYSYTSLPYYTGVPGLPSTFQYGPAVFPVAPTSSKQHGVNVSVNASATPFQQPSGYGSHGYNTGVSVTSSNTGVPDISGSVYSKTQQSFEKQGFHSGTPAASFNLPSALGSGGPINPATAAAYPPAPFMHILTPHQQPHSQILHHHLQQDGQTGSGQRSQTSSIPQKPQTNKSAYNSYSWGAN

GGCT (human), sequence (O75223 whole entry): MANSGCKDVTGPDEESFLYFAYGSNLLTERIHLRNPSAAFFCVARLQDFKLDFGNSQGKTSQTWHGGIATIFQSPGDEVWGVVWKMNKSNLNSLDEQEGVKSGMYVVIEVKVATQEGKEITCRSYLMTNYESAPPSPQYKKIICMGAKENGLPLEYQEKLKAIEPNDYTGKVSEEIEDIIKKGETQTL
C1orf68 (human), sequence (Q5T750 whole entry): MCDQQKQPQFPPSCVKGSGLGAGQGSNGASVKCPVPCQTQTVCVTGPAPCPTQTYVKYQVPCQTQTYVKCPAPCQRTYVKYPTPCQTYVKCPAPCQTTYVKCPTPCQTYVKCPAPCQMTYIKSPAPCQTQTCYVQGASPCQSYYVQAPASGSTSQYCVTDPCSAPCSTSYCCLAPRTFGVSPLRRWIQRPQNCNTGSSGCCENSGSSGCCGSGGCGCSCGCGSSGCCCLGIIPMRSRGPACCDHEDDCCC
CAT (human), sequence (P04040 2-527 limits assumed): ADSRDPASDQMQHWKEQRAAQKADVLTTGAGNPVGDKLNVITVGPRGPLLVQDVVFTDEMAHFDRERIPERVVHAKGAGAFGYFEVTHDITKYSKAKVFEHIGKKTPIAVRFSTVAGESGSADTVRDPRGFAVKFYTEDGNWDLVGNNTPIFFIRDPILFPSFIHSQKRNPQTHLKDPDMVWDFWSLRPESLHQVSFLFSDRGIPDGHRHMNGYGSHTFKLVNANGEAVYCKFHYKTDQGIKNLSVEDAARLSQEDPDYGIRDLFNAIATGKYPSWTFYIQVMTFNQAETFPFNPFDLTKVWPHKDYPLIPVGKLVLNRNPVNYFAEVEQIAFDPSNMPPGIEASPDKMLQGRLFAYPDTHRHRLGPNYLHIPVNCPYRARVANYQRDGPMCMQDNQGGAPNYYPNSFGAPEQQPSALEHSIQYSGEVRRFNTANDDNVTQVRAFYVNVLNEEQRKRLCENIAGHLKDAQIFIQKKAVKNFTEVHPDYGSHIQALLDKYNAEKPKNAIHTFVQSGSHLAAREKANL
KRT4 (human), sequence (P19013 whole entry): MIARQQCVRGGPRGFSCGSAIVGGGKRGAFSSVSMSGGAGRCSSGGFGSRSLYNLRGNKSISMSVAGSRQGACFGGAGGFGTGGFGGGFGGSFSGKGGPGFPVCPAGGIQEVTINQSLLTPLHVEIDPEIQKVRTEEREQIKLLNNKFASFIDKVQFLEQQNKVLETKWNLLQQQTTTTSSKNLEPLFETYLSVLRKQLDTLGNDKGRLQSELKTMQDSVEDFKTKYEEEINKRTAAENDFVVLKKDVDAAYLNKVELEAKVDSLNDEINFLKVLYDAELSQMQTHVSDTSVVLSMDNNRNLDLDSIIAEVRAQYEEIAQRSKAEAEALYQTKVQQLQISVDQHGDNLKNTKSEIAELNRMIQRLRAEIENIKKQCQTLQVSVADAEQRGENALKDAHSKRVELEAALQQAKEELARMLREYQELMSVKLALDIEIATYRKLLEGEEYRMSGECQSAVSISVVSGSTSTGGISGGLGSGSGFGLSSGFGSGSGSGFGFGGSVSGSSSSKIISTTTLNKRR
HSPA8 (human), sequence (P11142 2-646 limits assumed): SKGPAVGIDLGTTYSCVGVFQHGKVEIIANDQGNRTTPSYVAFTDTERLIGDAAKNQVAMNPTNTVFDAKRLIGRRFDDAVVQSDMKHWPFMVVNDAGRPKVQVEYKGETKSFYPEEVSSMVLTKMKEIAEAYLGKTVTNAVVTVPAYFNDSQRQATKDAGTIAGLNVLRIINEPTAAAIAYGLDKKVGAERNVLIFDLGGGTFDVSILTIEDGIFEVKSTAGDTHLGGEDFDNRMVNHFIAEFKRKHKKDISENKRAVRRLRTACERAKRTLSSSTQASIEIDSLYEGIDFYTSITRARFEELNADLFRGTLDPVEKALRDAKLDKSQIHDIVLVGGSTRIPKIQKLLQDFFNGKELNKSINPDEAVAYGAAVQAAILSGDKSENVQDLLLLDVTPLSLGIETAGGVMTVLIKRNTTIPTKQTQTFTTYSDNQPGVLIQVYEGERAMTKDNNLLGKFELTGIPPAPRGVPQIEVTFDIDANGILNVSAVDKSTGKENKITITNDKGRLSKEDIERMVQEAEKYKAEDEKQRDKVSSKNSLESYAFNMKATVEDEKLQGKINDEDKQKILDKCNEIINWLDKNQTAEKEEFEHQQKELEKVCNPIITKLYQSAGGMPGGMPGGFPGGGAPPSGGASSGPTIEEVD
DNAJC3 (human), sequence (Q13217 32-504 limits assumed): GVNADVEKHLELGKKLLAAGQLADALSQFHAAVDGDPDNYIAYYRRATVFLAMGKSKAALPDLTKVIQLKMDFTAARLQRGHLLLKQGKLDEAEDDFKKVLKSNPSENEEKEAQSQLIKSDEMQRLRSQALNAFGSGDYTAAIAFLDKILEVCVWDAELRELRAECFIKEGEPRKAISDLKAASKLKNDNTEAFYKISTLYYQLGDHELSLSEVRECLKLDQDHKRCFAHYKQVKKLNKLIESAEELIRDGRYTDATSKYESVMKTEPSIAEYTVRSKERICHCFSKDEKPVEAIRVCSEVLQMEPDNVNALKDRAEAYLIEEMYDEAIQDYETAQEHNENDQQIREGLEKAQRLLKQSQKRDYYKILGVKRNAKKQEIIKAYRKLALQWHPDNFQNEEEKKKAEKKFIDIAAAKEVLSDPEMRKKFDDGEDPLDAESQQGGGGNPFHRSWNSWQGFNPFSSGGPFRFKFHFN
HADHB (human), sequence (P55084 34-474 limits assumed): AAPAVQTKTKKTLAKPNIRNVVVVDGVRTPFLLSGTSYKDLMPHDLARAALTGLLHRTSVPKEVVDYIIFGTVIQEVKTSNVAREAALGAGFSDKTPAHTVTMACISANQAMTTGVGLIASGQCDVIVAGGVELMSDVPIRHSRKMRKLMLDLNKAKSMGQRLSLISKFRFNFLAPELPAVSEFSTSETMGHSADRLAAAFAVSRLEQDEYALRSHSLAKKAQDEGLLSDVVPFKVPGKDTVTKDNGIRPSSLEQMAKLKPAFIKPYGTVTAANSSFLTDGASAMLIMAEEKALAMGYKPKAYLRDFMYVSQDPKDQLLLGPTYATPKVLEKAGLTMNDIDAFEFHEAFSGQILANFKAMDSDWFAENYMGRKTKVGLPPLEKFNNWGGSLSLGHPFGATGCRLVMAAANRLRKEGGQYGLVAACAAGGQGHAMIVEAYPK
HNRNPK (human), sequence (P61978 other isoform, or with tags, fused parts or gaps limits assumed): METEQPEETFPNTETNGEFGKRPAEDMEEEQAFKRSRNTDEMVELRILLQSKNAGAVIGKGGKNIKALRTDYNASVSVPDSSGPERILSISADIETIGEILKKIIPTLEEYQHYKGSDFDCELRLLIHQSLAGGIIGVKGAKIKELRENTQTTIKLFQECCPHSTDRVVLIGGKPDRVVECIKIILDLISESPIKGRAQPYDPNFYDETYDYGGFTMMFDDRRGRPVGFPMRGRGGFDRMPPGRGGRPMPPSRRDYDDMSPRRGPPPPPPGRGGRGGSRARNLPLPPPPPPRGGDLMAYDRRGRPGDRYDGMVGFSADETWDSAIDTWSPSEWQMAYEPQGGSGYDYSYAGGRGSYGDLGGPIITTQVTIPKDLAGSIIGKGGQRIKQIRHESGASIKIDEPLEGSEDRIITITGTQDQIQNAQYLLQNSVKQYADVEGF

IgG control (Millipore Sigma 12-371) (antibody)
co-IP mass spectrometry count [1]: 0 | co-IP mass spectrometry count [2]: 2 | co-IP mass spectrometry count [3]: 0 | co-IP mass spectrometry count [4]: 0 | co-IP mass spectrometry count [5]: 0 | co-IP mass spectrometry count [6]: 6 | co-IP mass spectrometry count [7]: 0 | co-IP mass spectrometry count [8]: 0 | co-IP mass spectrometry count [9]: 8 | co-IP mass spectrometry count [10]: 16 | co-IP mass spectrometry count [11]: 0 | co-IP mass spectrometry count [12]: 21 | co-IP mass spectrometry count [13]: 316 | co-IP mass spectrometry count [14]: 3 | co-IP mass spectrometry count [15]: 5 | co-IP mass spectrometry count [16]: 3 | co-IP mass spectrometry count [17]: 5 | co-IP mass spectrometry count [18]: 0 | co-IP mass spectrometry count [19]: 4 | co-IP mass spectrometry count [20]: 0 | co-IP mass spectrometry count [21]: 20
